Biological target: H3(1-282)-strep tag Ⅱ-NGL (monkeypox virus (MPXV))
Test: BLI; […]; PBS; 100 s association, 120 s dissociation; global fit
Details: both partners purified

B1: AI-Poxblock723-strep tag Ⅱ-His8 (designed binder)
chain: MGLKKLQELKKKANELGKKAKEALDKGDFEKAKEYIKKGAEATKEYGELSGNKAAIEDGEKAEEVAEEIVKIAKEEKAKERSGGGGSGGGGS
notes: source: E. coli BL21(DE3), pET30a, purified (STarm Streptactin), exchanged into PBS
**Q.** Which Kd does the source give for B1 here?
**A.** 9 µM
